From patent US12630594B2, “Allergy antigen and epitope for same” (HOYU CO., LTD., priority 2017, dated 2026)

B1: Alpha-1,4-glucan phosphorylase (protein)
chain: MSKPLSDHDRKKQISVRGLAGVENVAELKVAFNRHLHFTLVKDRNVASKRDYYFALANTVRDHLVGRWIRTQQYYYEKDPKRVYYISLEFYMGRTLQNTMVNLALENACDEAIYQLGLDMEELEDMEEDAGLGNGGLGRLAACFLDSMASLGLAAYGYGIRYEFGIFNQKIVNGWQVEEADDWLRYGNPWEKARPEYMRPVKFYGRTEHTPEGVKWVDTQVVLALPYDTPIPGYRNNIVNTMRLWSAKAPCDFNLKDFNVGGYIQAVLDRNLCENISRVLYPNDNFFEGKELRLKQEYFVVAATLQDIVRRFKASKFGSREIVRTDFAQLPNKVAIQLNDTHPAMAIPELMRVLVDEEKLEWDKAWDVCVRTCAYTNHTVLPEALERWPIDLFHHLLPRHLEIIYEINRRFLQYVASKFPGDNDRLRRMSLIEEGECKKVNMAHMCIVGSHAVNGVARIHSEILVATLFKDFYELDPHKFQNKTNGITPRRWLVMCNPGLAEVIAERIGEEFVRDLDQLKKLLKFIDDDAFIRDIAKVKQENKLKFAVHLEEHYKVKINPQSMFDFQVKRIHEYKRQLLNCLHMITYYNRIKKEPNKHWTPRTIMVGGKAAPGYHTAKMIIRLITAIGEVVNHDPVIGDRLKVIFLENYRVTLAEKAIPSADLSEQISTAGTEASGTGNMKFMLNGALTIGTMDGANVEMAEEAGEKNLFIFGMRVEEVDAMDAGKGYHASEYYNRIPELKQAMDQISGGFFSHKQPDLFKELVDLLMHHDRFKVFADYEAYIKSQDKVNELYKKPKEWTKMVIHNIAGCGKFSSDRTISQYAREIWGMEPSLEKIPAPDEQLK
modifications: Alpha-1,4 glucan phosphorylase
B2: EEF1A2 binding protein-like (protein)
chain: MWKKKSKLTDQTATGQVGIKKRSKVPGVMITQYVEKIPDGKSHPDFTRKPIALTIQEGKFAFFKALVIGDPEPTVTWGRNNGDVSDTSKYVTKYDPATREHLFEMANVKPEQADTYKCFAANEFGRAVVTVVLNVIEVGFKKAQADSQVQPEAAVADFKSVLKRKSKIQPKMEKKEDGEIDPRFWELLISADKKDYESLMLEFGVTDFRFMLKTLNEIKKEREEEQAQFIENLANLKPIEVGPDGCATFSIDMDLIEQSSRIFLYKDGVMIPYSKELGDTIKHSLKIVGRKYQFSIRDLFPDDAGLYQVDVEDVNVFSTDFKIPMVDFLVKIQECKAMEREDAVFECVLSQPFGKIMWVGKNLPLEAGDKYDIEVSEDKLIHRLIIKDVAMVDKGIYAAVAGIKSCNAFLVVEADKGEPGKKKQRKTTRAGGAGVDLTAIAQEQAVKNTADREVLKEKVKAINDERAANATAAPETSAEAKAKVKVVEASQTGAPKQGPAVKGSDHKSVDNEGYSIKSGLSDVFALRGKKGELVCEMSHEVDGAWFKDGEKLSTTDGIAIVKDGTRHTMTIHSSSEDDTGVYHIEAGGFKSEAKVTVGELPAIDADDLHKFSKPVTIKVGQNASWKMPYTPQDNLEVKWFKDGKELKDGGGVKLVKEVKHSRLLLRECLRSDAGEIKIQLKNPFGTIEATSRLIVLDKPGPPEGPVEILETTSTVIELQWGAPKDDGGSPVTNYIIERQQLGQTVWKKMGDVAADKTTYRDRNVVHGKLYIYNIYAVNPEGTSDALQTEETMAGVLIFAGRPGAPKVVSASKTCINLKWEPPEDDGGIKIDGYQLEKRKKDTAQWIALNPVTEPIEVLEYAVKDVVEGAEYEFRVSAINVSGAGEFSLPSVMVTAKNPNMRPTFKDPEDFMVIRAGNSVRIKVLYEAEPPPEITWMKDNEPVSSFIQIINTEGCSQLVIPSTKRSDSGNYTIVAKNKVGEASFDIEVLVTDEPKPPGAVELEQIVHGKVIVSWEASPDQELDNRLYYMVAEHDSSTRMWHTVADRIFDNSYTANNIMPGREYHFKIYAKNDMGMSDPSMSPTWGINSNRIPINTNTPVEVSFEKPPSVLVPLKMHSPPKGFQMYMTCAIRGCPTPSVTWHLNNVCINGDSNYYITNSYGVCSMYILRVRPKDAGEYKVVAVNSFGKAECSTKLVVKD
modifications: EEF1A2 binding protein-like
B3: Serotransferrin (protein)
chain: MKLLLVSALLGCFATVYAAPAEGMVRWCVKSEKELKKCHDLAANVAGFSCVRRDDSLECIQAIKREEADAITLDGGDIYIAGLHNYNLQPIIAEDYGEDSDTCYYAVAVAKKGTEFGFLDLRGKKSCHTGLGKSAGWNIPIGTLVTVGQIQWAGIEDRPVESAVSDFFNASCAPGANRDSQLCQLCMGDCSRSHNEPYYDYSGAFQCLKDGAGEVAFIKHLTVPAAEKASYELLCKDNTRAPIDSYKTCHLARVPAHAVVSRKDPRLANLIYSKLMAVTNFNLFSSDGYAAKNLMFKDSTQNLVQLPMTTDSFLYLGAEYMSTIRSLTKAQATGVTSRAIKWCAVGHKEKVKCDAWTINSFTDGDSRIECQDAPTVDECIKKIMRKEADAIAVDGGEVFTAGKCGLVPVMVEQYDEVRCSAPGEASSYFAVAVAKRGSGLTWTTLKGKRSCHTGLGRTAGWNIPMGLIHRRTMNCDFTTYFSKGCAPGFEVDSPFCAQCKGSGKSVGGDGSKCKASSEEQYYGYNGAFRCLVEDAGDVAFIKHTIVPEMTDGSGPVWAQNLMSSDFELLCQDGTTKPVTHFRECHLAKVPAHAVITRPESRGEVVSILLEQQARFGSSGSDSSFNMFKPDFGKNLLFKDSTKCLQEIPSGTKFQGFLGEEYMIAMQSLRECSNSTSDLEKACTFHSC
modifications: Serotransferrin

Tested on: IgE antibody in the serum of a fish-allergic patient
Assay: Immunoblotting of two-dimensional electrophoresis patterns of fish meat proteins with patient serum
Assay type: binding, human
Details: spots in two-dimensional electrophoresis gel of proteins in fish; patients diagnosed with immediate-type allergy
Experimental: Proteins contained in fish were analyzed by the aforementioned technique to identify antigens of an allergy to fish. To be specific, proteins were extracted from fish meat and subjected to two-dimensional electrophoresis under the conditions described below.
The electrophoresis in the first dimension was isoelectric focusing, which was performed using isoelectric focusing gels with a gel-strip length of 5 to 10 cm and a gel pH range of 3 to 10. The pH gradient of the gels in the direction of electrophoresis was as follows: with the total gel-strip length being taken as 1, the gel-strip length up to pH 5 was “a=0.15 to 0.3”, the gel-strip length from pH 5 to 7 was “b=0.4 to 0.7”, and the gel-strip length above pH 7 was “c=0.15 to 0.3”. More specifically, the isoelectric focusing was performed using the IPG gels, Immobiline Drystrip (pH3-10NL), produced by GE Healthcare Bio-Sciences Corporation (hereinafter abbreviated as “GE”). The electrophoresis system used was IPGphor produced by GE. The maximum current of the electrophoresis system was limited to 75 μA per gel strip. The voltage program adopted to perform the first-dimensional isoelectric focusing was as follows: (1) a constant voltage step was performed at a constant voltage of 300 V until the volt-hours reached 750 Vhr (the current variation width during electrophoresis for 30 minutes before the end of this step was 5 μA); (2) the voltage was increased gradually to 1000 V for 300 Vhr; (3) the voltage was further increased gradually to 5000 V for 4500 Vhr; and then (4) the voltage was held at a constant voltage of 5000 V until the total Vhr reached 12000.
The electrophoresis in the second dimension was SDS-PAGE, which was performed using polyacrylamide gels whose gel concentration at the distal end in the direction of electrophoresis was set to 3 to 6% and whose gel concentration at the proximal end was set to a higher value than that at the distal end. More specifically, the SDS-PAGE was performed using NuPAGE 4-12% Bris-Tris Gels (IPG well, Mini, 1 mm) produced by Life Technologies. The electrophoresis system used was XCell SureLock Mini-Cell produced by Life Technologies. The electrophoresis was run at a constant voltage of 200 V for about 45 minutes using an electrophoresis buffer composed of 50 mM MOPS, 50 mM Tris base, 0.1% (w/v) SDS and 1 mM EDTA.
Identification of antigens by immunoblotting was carried out by taking all the steps up to the step of “Second-dimensional SDS-PAGE” as described above in Example 1, followed by the steps of “Transfer to membrane”, “Immunoblotting” and “Analysis” as described below.
To be specific, proteins in the second-dimensional electrophoresis gels were transferred to a membrane (PVDF membrane) according to the following procedure. • (1) The PVDF membrane was immersed in 100% methanol followed by milliQ water, and then moved into the transfer buffer to hydrophilize the PVDF membrane. • (2) After sponge, filter paper, the second-dimensional electrophoresis gels treated by second-dimensional SDS-PAGE, the hydrophilized PVDF membrane, filter paper, and sponge were put in place in this order, the transfer system was energized at a constant voltage of 30 V for one hour. Immunoblotting
Immunoblotting of the membrane was carried out using, as a primary antibody, a serum sample from patient 1 with a fish allergy or a serum sample from a non-fish-allergic subject. This fish-allergic patient 1 was a patient diagnosed with immediate-type allergy to fish. […]

specific binding to IgE antibodies from fish-allergic patients | Molecule
specific binding to IgE antibodies | B1
specific binding to IgE antibodies | B2
specific binding to IgE antibodies | B3
